Experimental findings from patent US20240336681A1 (LUDWIG MAXIMILIANS UNIVERSIT T M NCHEN, published 2024) are described below.

Assay [1] addresses recombinant C-terminally His-tagged human CD47 (extracellular domain) (human) (UniProt Q08722). Kind of assay: SPR, Biacore X100; analyte hCD47 31.25 to 2000 nM. (In general: Surface plasmon resonance follows binding to a sensor surface in real time, without labels.)
Assay [2] has the same target. Kind of assay: SPR, Biacore X100; construct captured by anti-human Fc on CM5 chip, human CD47 extracellular domain as analyte, 1:1 fit.
Assay [3] shares this target. Kind of assay: SPR (affinity to CD47 as measured by SPR).
For assay [4] the target is unchanged. Briefly: SPR, Biacore X100; construct captured by anti-human Fc on a CM5 chip, CD47 extracellular domain as analyte, 1:1 fit.
The target in assay [5] is T1, recombinant C-terminally His-tagged human CD47 (extracellular domain) (human, UniProt Q08722 19-141).
T1 construct: also called recombinantly expressed human CD47 extracellular domain
T1 sequence (Q08722 19-141): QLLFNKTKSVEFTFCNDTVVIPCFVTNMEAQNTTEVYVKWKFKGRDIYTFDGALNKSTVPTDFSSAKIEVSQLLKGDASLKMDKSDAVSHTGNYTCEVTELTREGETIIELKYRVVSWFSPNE
Kind of assay: SPR, Biacore X100; construct captured by anti-human Fc on CM5 chip, human CD47 extracellular domain as analyte, 1:1 fit. Here is the method: (§1) Surface Plasmon Resonance (SPR) was used in addition to analyse binding of the different protein constructs to recombinantly expressed CD47 and to determine their affinity. Association (Kₒₙ) and dissociation (Koff) rate constants were determined by SPR using a Biacore™ X-100 (Cytiva). Using the Human antibody capture kit an anti-human Fc antibody was immobilized on a CM5 sensor chip in a covalent manner using the Amine coupling Kit according to manufacturer's instructions. Humanized anti-hCD47 IgGs were injected as ligand to reach a surface coverage of approximately 100 RU-400 RU. Recombinantly expressed human CD47 extracellular domain was used as analyte and injected in increasing concentrations (e. g. from 3.9 to 1000 nM), with standard association time of 120 s and dissociation time of 600 s. Experiments were performed in multi-cycle kinetics runs, with regeneration between sample injection with the respective regeneration buffer (3M MgCl2 for the human antibody capture kit). All reagents were diluted in HBS-EP+ buffer (Cytiva). Data are fit to a simple 1:1 interaction model using the global data analysis option available within BiaEvaluation 2.0.1 software. The dissociation constant (KD) was used as a value for the affinity and was calculated from the ratio between Koff and Kₒₙ.

The target of a further assay is T2, human CD47 on cells (human, UniProt Q08722 19-323).
T2 construct: also called CD47 on Molm-13, OVCAR-3, Suit-2 MSLN, HL-60 cells, red blood cells and CD47-transfected CHO cells
T2 sequence (Q08722 19-323): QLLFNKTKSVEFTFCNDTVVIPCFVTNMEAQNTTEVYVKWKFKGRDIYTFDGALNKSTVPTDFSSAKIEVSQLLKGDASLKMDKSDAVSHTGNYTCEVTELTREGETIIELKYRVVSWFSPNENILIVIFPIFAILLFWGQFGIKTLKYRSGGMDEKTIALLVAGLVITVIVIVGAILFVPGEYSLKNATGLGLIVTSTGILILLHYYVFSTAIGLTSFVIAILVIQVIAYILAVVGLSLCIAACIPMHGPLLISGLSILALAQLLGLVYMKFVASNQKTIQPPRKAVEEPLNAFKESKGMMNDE
Kind of assay: flow cytometry on CD47-positive Expi293 cells, 50 nM antibody; MFI of the antibody over MFI of the isotype control. The procedure: Initially, binding of anti-hCD47 IgG4, anti-hCD47 IgG1 antibodies and Fab domains were measured on CD47-expressing cells by flow cytometry. Cells were stained with 50 nM of antibody followed by staining with a secondary fluorescently labelled anti-human IgG Fc or light-chain antibody, and analyzed by flow cytometry. Binding was measured by calculating the median fluorescence intensity (MFI) ratio, by dividing MFI of the antibody by the MFI of the isotype control.
On the technique in general: In flow cytometry, cells or beads pass a laser one at a time.

In assay [6] the target is T1, recombinant C-terminally His-tagged …. Kind of assay: SPR, Biacore X100; antibody captured by anti-human Fc on a CM5 chip, CD47 extracellular domain as analyte, 1:1 fit. Here is the method:
as §1

For assay [7] the target is unchanged. Kind of assay: SPR, Biacore X100.
For assay [8] the target is unchanged. Kind of assay: SPR, Biacore X100; format for the scFv not described.

Substitutions are numbered along the chain they refer to.

Sequence of recombinant C-terminally His-tagged human CD47 (extracellular domain) (human) (Q08722 19-141): as the sequence (Q08722 19-141) above

B1: MSL-745 (bispecific antibody, part only; not given: anti-mesothelin IgG1 chains and linkers, V domains shown, not shown: another chain or arm of the molecule; large carriers; small tags and cut ends)
VH: QVELVQSGPEVKKPGSSVKVSCKASGYTFPSYDINWVRQRPGQCLEWMGGIYPRSGSPKYNEKFKGRVTITADTSTSTAYMELHSLRSEDTAVYYCARSVYYGTQFAYWGQGTLVTVSA
VL: DIVLTQSPSSLAVSLGERVTMSCKSSQSLLNSRTRKNYLAWYQQKPGQPPKLLIYWASTRDSGVPDRFSGSGSGTDFTLTISSLQAEDVAVYYCQQSFNLVTFGCGTKLEIK
On to B1, for which, in assay [1], the koff (commonly a measure of how fast the partners let go of each other) is 0.396 s⁻¹ and the kon – broadly, the rate constant with which the complex forms – was 685000 M⁻¹ s⁻¹. Further, in [2], the Kd (commonly the free concentration of one partner at which half of the binding sites on the other are occupied at equilibrium, for simple one-to-one binding) was 578 nM.

B2: 2D6-059 (bispecific antibody, part only; not given: linkers and anti-TAA IgG1 chains, V domains shown, not shown: another chain or arm of the molecule; large carriers; small tags and cut ends)
VH: B1 VH
VL: B1 VL
Turning to B2, in assay [3], the Kd worked out at 568 nM.

B3: 2D6-022 (bispecific antibody, part only; not given: linkers and anti-TAA IgG1 chains, V domains shown, not shown: another chain or arm of the molecule; large carriers; small tags and cut ends)
VH: B1 VH with C44G, G50W, S55D
VL: B1 VL with Q95K, C105G
As for B3, the Kd in assay [2] was 106 nM. Also, in [4], the koff stood at 0.07 s⁻¹ and the kon amounted to 660000 M⁻¹ s⁻¹.

B4: 2D6-056 (bispecific antibody, part only; not given: linkers and anti-TAA IgG1 chains, V domains shown, not shown: another chain or arm of the molecule; large carriers; small tags and cut ends)
VH: B1 VH with C44G
VL: B1 VL with C105G
Turning to B4, the dissociation constant Kd in [3] amounted to 659 nM.

B5: 2D6-031 (bispecific antibody, part only; not given: linkers and anti-TAA IgG1 chains, V domains shown, not shown: another chain or arm of the molecule; large carriers; small tags and cut ends)
VH: QVQLVESGGGLVQPGGSLRLSCAASGYTFPSYDINWVRQAPGKGLEWVGWIYPRDGSPKYNEKFKGRFTISADTSKNTAYLQMNSLRAEDTAVYYCARSVYYGTQFAYWGQGTLVTVSS
VL: DIQMTQSPSSLSASVGDRVTITCKSSQSLLNSRTRKNYLAWYQQKPGKAPKLLIYWASTRDSGVPSRFSGSGSGTDFTLTISSLQPEDFATYYCKQSFNLVTFGQGTKVEIK
With B5, the Kd in [2] is 138 nM. Besides, in assay [4], the koff stood at 0.14 s⁻¹ and the kon was determined as 990000 M⁻¹ s⁻¹.

B6: 2D6-016 (antibody, IgG4, V domains shown)
VH: B5 VH
VL: B5 VL with Q3V, S66D
notes: hIgG4 (humanized IgG4); only the variable domains are tied to the construct; also called VH4/VL4
For the molecule B6, in [5], the Kd was found to be 203 nM. For the same molecule, the MFI ratio in the assay with human CD47 on cells was determined as 3.42. Further, in [6], the Kd amounted to 203 nM, the dissociation rate constant (koff) came out at 0.36 s⁻¹ and the kon amounted to 1.8e+06 M⁻¹ s⁻¹.

B7: 2D6-015 (antibody, IgG4, V domains shown)
VH: B5 VH
VL: B5 VL
notes: hIgG4 (humanized IgG4); only the variable domains are tied to the construct; also called VH4/VL3
Take B7: in assay [5], the Kd stood at 311 nM. In addition, the MFI ratio in the assay with human CD47 on cells was 4.14. Moreover, in assay [6], the Kd stood at 310 nM, the koff amounted to 0.22 s⁻¹ and the kon was 710000 M⁻¹ s⁻¹.

B8: 2D6-032 (bispecific antibody, part only; not given: linkers and anti-TAA IgG1 chains, V domains shown, not shown: another chain or arm of the molecule; large carriers; small tags and cut ends)
VH: B5 VH
VL: B5 VL with Q3V, S66D
For B8, the Kd in assay [2] worked out at 141 nM. In addition, in assay [4], the koff came to 0.13 s⁻¹ and the kon amounted to 960000 M⁻¹ s⁻¹.

B9: 2D6-096 (scFv, V domains shown, not shown: small tags and cut ends)
VH: B5 VH with P30T
VL: B5 VL
notes: Standalone scFv; also called anti-CD47 scFv (2D6-096); VH3/VL3
As to B9, in assay [7], the off-rate (koff) is 0.00163 s⁻¹ and the kon is 81500 M⁻¹ s⁻¹. The Kd in [8] came out at 20 nM.
